To fix the notation:
T1: His-tagged PH domain of OCRL (1-129) (UniProt Q01968 1-129)
T1 construct: OCRL (OCRL1), PH domain, residues 1-129; also called OCRL PH domain; source: E. coli, purified (protocol similar to that of TMEM55B, no ZnCl2 added)
T1 sequence (looked up): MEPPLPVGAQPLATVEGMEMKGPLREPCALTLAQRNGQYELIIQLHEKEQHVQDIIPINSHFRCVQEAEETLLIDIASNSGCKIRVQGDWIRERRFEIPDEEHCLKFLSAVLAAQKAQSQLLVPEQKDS

B1: RILPL1 391-403 peptide (peptide)
peptide: GYTEQGQEALQHL
notes: also called RL1pep; RILPL1 peptide; source: synthetic peptide (Genscript)
B2: TMEM55B (80-166), untagged, wild type (domain or fragment)
chain: not shown
notes: N-terminal peptide left from the pET15b expression vector; TMEM55B, residues 80-166; numbers count on: UniProt Q86T03 isoform 2 (284 residues); also called WT TMEM55B region 80-166; source: E. coli BL21(DE3), purified (Ni-NTA, thrombin, second Ni-NTA, gel filtration)
B3: His-JIP4 887-897 (peptide)
peptide: GSTAEEATEATEG
notes: linker after the His6 tag; JIP4, residues 887-897; also called His-tagged JIP4 peptide; source: synthetic peptide (Genscript); not shown: His6, N-terminal, kept
B4: His-WDR81 657-668 (peptide)
peptide: GSDDLEQATEALDS
notes: linker after the His6 tag; WDR81, residues 657-668; also called His-tagged WDR81 peptide; source: synthetic peptide (Genscript); not shown: His6, N-terminal, kept
B5: WDR81 657-668 (peptide)
peptide: DDLEQATEALDS
notes: WDR81, residues 657-668; source: synthetic peptide (Genscript)
B6: His-RILPL1 391-403 (peptide)
peptide: GSGYTEQGQEALQHL
notes: linker after the His6 tag; also called His-tagged RILPL1 peptide; source: synthetic peptide (Genscript); not shown: His6, N-terminal, kept
B7: JIP3 889-903 (peptide)
peptide: SQSTEEATEATEVPD
notes: JIP3, residues 889-903; source: synthetic peptide (Genscript)
B8: JIP4 887-897 (peptide)
peptide: TAEEATEATEG
notes: JIP4, residues 887-897; source: synthetic peptide (Genscript)
B9: OCRL-PH domain (as used in ITC) (domain or fragment, UniProt Q01968 1-119, looked up)
chain: MEPPLPVGAQPLATVEGMEMKGPLREPCALTLAQRNGQYELIIQLHEKEQHVQDIIPINSHFRCVQEAEETLLIDIASNSGCKIRVQGDWIRERRFEIPDEEHCLKFLSAVLAAQKAQS
notes: OCRL, PH domain; residues 1-129 are stated for the His-tagged variant of the pull-down; Probably the construct of m14; source: E. coli, purified (protocol similar to that of TMEM55B, no ZnCl2 added)

Several values for one entry are separate records, joined by “and”; a condition that tells them apart may be missing. Equal values may be shown once.

T2 sequence (Q86T03 73-153): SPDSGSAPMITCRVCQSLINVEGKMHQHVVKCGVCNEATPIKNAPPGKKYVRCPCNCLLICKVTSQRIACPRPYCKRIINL

One assay concerns the target B2. Nature of the assay: SEC-MALS; Superdex75 10/300 GL, 1-1.5 mg/mL, TMEM55B_(80-166) alone or with RILPL1 peptide. The note with it: both partners purified. (SEC sorts molecules by how far they enter the pores of the column.)
For B1, the stoichiometry N (in general, the number of molecules, sites or subunits per partner or assembly) turned out to be 1.

Another assay has as its target T1, His-tagged PH domain of OCRL (1-129). Put plainly: pull-down; 10μM His-tagged peptide or His-tagged OCRL PH domain as bait on Ni2+-agarose, 10μM untagged TMEM55B as prey; 20 mM Tris pH 8.0, 300 mM NaCl, 20mM imidazole, 10 mM β-mercaptoethanol; Coomassie. The note with it: both partners purified.
Consider B2, for which the binding result is recorded as “binds”.

The target in another assay is B2. The description is as above. The following applies: both partners purified.
For the molecule B3, the binding result is listed as “binds”.
For the molecule B4, the binding result was “binds”.

Another assay concerns the target T2, TMEM55B (80-160) (UniProt Q86T03-2 80-160).
T2 construct: TMEM55B, residues 80-160; numbers count on: UniProt Q86T03 isoform 2; source: E. coli, purified
Nature of the assay: ITC; peptide or OCRL PH domain injected into the cell with TMEM55B_(80-160); ITC200; Tris-HCl, 150mM NaCl, 1mM DTT, pH 7.5; single binding mode. The following applies: both partners purified. In general terms: Isothermal titration calorimetry measures the heat released or taken up as one component is titrated into another.
As for B5, the Kd – broadly, a measure of binding affinity in units of concentration – is 20 nM and 33 nM and 12 nM; the dH was -9 kcal/mol and -9.1 kcal/mol and -8.7 kcal/mol; the “stoichiometry N” value was 0.94 and 1.1.
With B6, the Kd was 680 nM and 590 nM and 1000 nM; the dH is -11.4 kcal/mol and -12.1 kcal/mol and -13.6 kcal/mol; the “stoichiometry N” value is 0.87 and 0.95.
Turning to B7, the Kd is 127 nM and 126 nM and 103 nM; the dH was -8.2 kcal/mol and -9.3 kcal/mol; the “stoichiometry N” value is 1.2 and 0.99 and 1.1.
Consider B8, for which the Kd was 2900 nM and 2200 nM and 3100 nM; the dH was -8.9 kcal/mol and -9.7 kcal/mol and -8.7 kcal/mol; the “stoichiometry N” value was 1 and 0.91 and 0.78.
As for B9, the dH was -5.3 kcal/mol and -5.9 kcal/mol and -6.7 kcal/mol; the “stoichiometry N” value was 0.69 and 0.86 and 0.68.

The values are drawn from doi:10.1101/2025.08.19.670962, “Structural basis for binding of RILPL1 to TMEM55B reveals a lysosomal platform for adaptor assembly through a conserved TBM motif” (bioRxiv, 2025).
